± gives the uncertainty stated by the source.
B1: Steroid hormone receptor ERR2, residues 100 to 176; numbered along this chain, O95718 (parent)
chain: KRLCLVCGDIASGYHYGVASCEACKAFFKRTIQGNIEYSCPATNECEITKRRRKSCQACRFMKCLKVGMLKEGVRLD

Variants of: B1
Test: abundance fitness (aPCA) (normalised: wild type 0, dead -1); higher = more abundant; growth selection in yeast, the domain comes from the species named
Conditions: Homo sapiens
KRLCLVCGDIASGYHYGVASCEACKAFFKRTIQGNIEYSCPATNECEITKRRRKSCQACRFMKCLKVGMLKEGIRLD [V74I] gave an abundance fitness of -0.026 ± 0.088.
Work on KRLCLVCGDIASGYHYGVASCEACKAFFKRTIQGNIEYSCPATNECEITKRRRKSCQACRFMKCLKVGMLKEGKRLD [V74K] yielded an abundance fitness of -0.124 ± 0.078.
KRLCLVCGDIASGYHYGVASCEACKAFFKRTIQGNIEYSCPATNECEITKRRRKSCQACRFMKCLKVGMLKEGLRLD [V74L] gave an abundance fitness of -0.004 ± 0.05.
For KRLCLVCGDIASGYHYGVASCEACKAFFKRTIQGNIEYSCPATNECEITKRRRKSCQACRFMKCLKVGMLKEGMRLD [V74M], the abundance fitness was -0.13 ± 0.075.
KRLCLVCGDIASGYHYGVASCEACKAFFKRTIQGNIEYSCPATNECEITKRRRKSCQACRFMKCLKVGMLKEGNRLD [V74N] showed an abundance fitness of -0.036 ± 0.11.
Variant KRLCLVCGDIASGYHYGVASCEACKAFFKRTIQGNIEYSCPATNECEITKRRRKSCQACRFMKCLKVGMLKEGPRLD [V74P] has an abundance fitness of -0.025 ± 0.094.
For KRLCLVCGDIASGYHYGVASCEACKAFFKRTIQGNIEYSCPATNECEITKRRRKSCQACRFMKCLKVGMLKEGRRLD [V74R], the abundance fitness was -0.191 ± 0.046.
Work on KRLCLVCGDIASGYHYGVASCEACKAFFKRTIQGNIEYSCPATNECEITKRRRKSCQACRFMKCLKVGMLKEGSRLD [V74S] yielded an abundance fitness of -0.017 ± 0.052.
Variant KRLCLVCGDIASGYHYGVASCEACKAFFKRTIQGNIEYSCPATNECEITKRRRKSCQACRFMKCLKVGMLKEGTRLD [V74T] has an abundance fitness of -0.129 ± 0.08.
With KRLCLVCGDIASGYHYGVASCEACKAFFKRTIQGNIEYSCPATNECEITKRRRKSCQACRFMKCLKVGMLKEGYRLD [V74Y] the abundance fitness was -0.319 ± 0.16.
KRLCLVCGDIASGYHYGVASCEACKAFFKRTIQGNIEYSCPATNECEITKRRRKSCQACRFMKCLKVGMLKEGVALD [R75A] gave an abundance fitness of 0.035 ± 0.046.
Work on KRLCLVCGDIASGYHYGVASCEACKAFFKRTIQGNIEYSCPATNECEITKRRRKSCQACRFMKCLKVGMLKEGVCLD [R75C] yielded an abundance fitness of 0.117 ± 0.067.
Variant KRLCLVCGDIASGYHYGVASCEACKAFFKRTIQGNIEYSCPATNECEITKRRRKSCQACRFMKCLKVGMLKEGVDLD [R75D] has an abundance fitness of 0.04 ± 0.07.
Work on KRLCLVCGDIASGYHYGVASCEACKAFFKRTIQGNIEYSCPATNECEITKRRRKSCQACRFMKCLKVGMLKEGVELD [R75E] yielded an abundance fitness of 0.076 ± 0.051.
KRLCLVCGDIASGYHYGVASCEACKAFFKRTIQGNIEYSCPATNECEITKRRRKSCQACRFMKCLKVGMLKEGVFLD [R75F] showed an abundance fitness of -0.014 ± 0.079.
In the case of KRLCLVCGDIASGYHYGVASCEACKAFFKRTIQGNIEYSCPATNECEITKRRRKSCQACRFMKCLKVGMLKEGVHLD [R75H], the abundance fitness is reported as -0.165 ± 0.11.
Variant KRLCLVCGDIASGYHYGVASCEACKAFFKRTIQGNIEYSCPATNECEITKRRRKSCQACRFMKCLKVGMLKEGVILD [R75I] has an abundance fitness of -0.051 ± 0.095.
With KRLCLVCGDIASGYHYGVASCEACKAFFKRTIQGNIEYSCPATNECEITKRRRKSCQACRFMKCLKVGMLKEGVKLD [R75K] the abundance fitness was 0.075 ± 0.057.
Work on KRLCLVCGDIASGYHYGVASCEACKAFFKRTIQGNIEYSCPATNECEITKRRRKSCQACRFMKCLKVGMLKEGVNLD [R75N] yielded an abundance fitness of -0.074 ± 0.1.
For KRLCLVCGDIASGYHYGVASCEACKAFFKRTIQGNIEYSCPATNECEITKRRRKSCQACRFMKCLKVGMLKEGVPLD [R75P], the abundance fitness was 0.031 ± 0.068.
KRLCLVCGDIASGYHYGVASCEACKAFFKRTIQGNIEYSCPATNECEITKRRRKSCQACRFMKCLKVGMLKEGVQLD [R75Q] gave an abundance fitness of 0.153 ± 0.054.
For KRLCLVCGDIASGYHYGVASCEACKAFFKRTIQGNIEYSCPATNECEITKRRRKSCQACRFMKCLKVGMLKEGVTLD [R75T], the abundance fitness was 0.062 ± 0.059.
KRLCLVCGDIASGYHYGVASCEACKAFFKRTIQGNIEYSCPATNECEITKRRRKSCQACRFMKCLKVGMLKEGVVLD [R75V] gave an abundance fitness of 0.002 ± 0.042.
With KRLCLVCGDIASGYHYGVASCEACKAFFKRTIQGNIEYSCPATNECEITKRRRKSCQACRFMKCLKVGMLKEGVWLD [R75W] the abundance fitness was -0.1 ± 0.052.
KRLCLVCGDIASGYHYGVASCEACKAFFKRTIQGNIEYSCPATNECEITKRRRKSCQACRFMKCLKVGMLKEGVYLD [R75Y] showed an abundance fitness of -0.102 ± 0.095.
In the case of KRLCLVCGDIASGYHYGVASCEACKAFFKRTIQGNIEYSCPATNECEITKRRRKSCQACRFMKCLKVGMLKEGVRAD [L76A], the abundance fitness is reported as 0.124 ± 0.057.
KRLCLVCGDIASGYHYGVASCEACKAFFKRTIQGNIEYSCPATNECEITKRRRKSCQACRFMKCLKVGMLKEGVRCD [L76C] gave an abundance fitness of -0.099 ± 0.11.
With KRLCLVCGDIASGYHYGVASCEACKAFFKRTIQGNIEYSCPATNECEITKRRRKSCQACRFMKCLKVGMLKEGVRDD [L76D] the abundance fitness was 0.08 ± 0.09.
In the case of KRLCLVCGDIASGYHYGVASCEACKAFFKRTIQGNIEYSCPATNECEITKRRRKSCQACRFMKCLKVGMLKEGVRED [L76E], the abundance fitness is reported as 0.146 ± 0.053.
KRLCLVCGDIASGYHYGVASCEACKAFFKRTIQGNIEYSCPATNECEITKRRRKSCQACRFMKCLKVGMLKEGVRGD [L76G] gave an abundance fitness of 0.055 ± 0.043.
KRLCLVCGDIASGYHYGVASCEACKAFFKRTIQGNIEYSCPATNECEITKRRRKSCQACRFMKCLKVGMLKEGVRID [L76I] showed an abundance fitness of -0.037 ± 0.15.
Work on KRLCLVCGDIASGYHYGVASCEACKAFFKRTIQGNIEYSCPATNECEITKRRRKSCQACRFMKCLKVGMLKEGVRKD [L76K] yielded an abundance fitness of -0.028 ± 0.07.
Variant KRLCLVCGDIASGYHYGVASCEACKAFFKRTIQGNIEYSCPATNECEITKRRRKSCQACRFMKCLKVGMLKEGVRMD [L76M] has an abundance fitness of -0.001 ± 0.067.
Variant KRLCLVCGDIASGYHYGVASCEACKAFFKRTIQGNIEYSCPATNECEITKRRRKSCQACRFMKCLKVGMLKEGVRND [L76N] has an abundance fitness of 0.056 ± 0.12.
Variant KRLCLVCGDIASGYHYGVASCEACKAFFKRTIQGNIEYSCPATNECEITKRRRKSCQACRFMKCLKVGMLKEGVRPD [L76P] has an abundance fitness of -0.079 ± 0.08.
Work on KRLCLVCGDIASGYHYGVASCEACKAFFKRTIQGNIEYSCPATNECEITKRRRKSCQACRFMKCLKVGMLKEGVRQD [L76Q] yielded an abundance fitness of -0.007 ± 0.061.

Reference: the Human Domainome abundance scans (Beltran et al. 2025)
